Measured values as given in US20040014209A1, “Compositions and methods for modulating cell differentiation” (priority 2002, published 2004).

Columns and labels:
[1] = target: mWnt-3a (UniProt P27467); assay: cell-based or functional assay
[2] = system: DMZ explants; assay: Wnt cDNA overexpression in DMZ explants, Nkx2.5 and TnIc by in situ hybridization; type: cell-based, Xenopus; settings: plasmid cDNA injection into dorsal blastomeres; for Incidence of explants expressing Nkx2.5: stage 23; for Incidence of explants expressing TnIc: stage 30
From the text: If the normal function of Wnt antagonism in vivo is to induce cardiogenic mesoderm, then overexpression of Wnt proteins should block cardiogenesis in dorsal mesoderm. Four Wnt genes are known to be expressed during gastrulation: Wnt3A, Wnt5A, Wnt8, and Wnt11. Expression of Wnt8 is normally excluded from the organizer region, whereas Wnt 3A and Wnt11 are expressed dorsally and Wnt5A is found diffusely throughout the ectoderm (Christian and Moon 1993; Ku and Melton 1993; Moon et al. 1993; Du et al. 1995; McGrew et al. 1997). We injected Wnt cDNAs into the two dorsal blastomeres of a four-cell embryo and dissected DMZ explants encompassing the organizer and heart primordia at stage 10 (FIG. 10A). Plasmid injections were performed to avoid perturbation of Nieuwkoop center activity that can occur on expression of certain Wnts before the midblastula transition (Smith and Harland 1991; Sokol et al. 1991). Explants were cultured to either stage 23 or stage 30, at which time they were examined for the expression of Nkx2.5 or TnIc.
(§1) Marginal zone explants were dissected at stage 10. Those explants to be examined by RT-PCR for expression of heart field marker- and heart muscle-specific genes were cultured until sibling embryos were stage 30. In situ hybridization was performed on explants cultured to the equivalent of stage 23 or stage 30. Explants to be scored for formation of beating hearts were maintained until the equivalent of stage 41.
(§2) mRNA was transcribed from pSP35-chd, pSP64-ngn, pCS2-DKK1, pCS2-Crescent, pCS2-GSK3, pCS2-WIF, pCS2-dnXwnt8, pCS2-szl, and pXT7-FrzA using the SP6 and T7 mMessage mMachine kits (Ambion). All cDNAs used encode Xenopus proteins except those for Wnt1 and crescent, which encode chick isoforms. The Xenopus form of crescent was identified while this manuscript was in preparation (Pfeffer et al. 1997; Pera and De Robertis 2000; Shibata et al. 2000) and functions identically to the chick isoform in our assays. Xenopus and chick Crescent share 88% amino acid positional identity within the cysteine-rich domain. Injections were performed in 3% Ficoll in 1×MMR. Embryos were injected equatorially into the two ventral or two dorsal blastomeres at the four-cell stage to target expression to the ventral or dorsal marginal zone. The amount of mRNA injected is given in the text. For plasmid cDNA injections, 75 pg of pCS2-Xwnt3A, pCS2-Xwnt5A, and pCSKA-Xwnt8 and 100 pg of pCS2-cWnt11 supercoiled plasmid constructs were injected.
In situ hybridization was performed according to the protocol of Harland (1991). Digoxygenin-labeled probes were transcribed from the following linearized plasmids: pGEM-XNkx2.5 (XbaI, T7 polymerase) and pBS-TnIc (NotI, T7).

[3] = system: APMEE explants; assay: APMEE explant culture, cardiac gene expression by RT-PCR; type: cell-based, chick; settings: noggin administration to APMEE explants
[4] = system: ventral marginal zone (VMZ) explants; assay: VMZ explant assay: mRNA injection, cardiac-specific gene expression and beating; type: cell-based, Xenopus laevis
Procedure: In a modification of this assay (FIG. 6A), we targeted mRNAs encoding Wnt and BMP antagonists to VMZ tissue by microinjection into the equatorial region of both ventral blastomeres of four-cell stage embryos. VMZ explants were isolated at stage 10, cultured, and assayed at stage 30 by RT-PCR for cardiac-specific gene expression.
Embryos were fertilized in vitro, dejellied in 2% cysteine-HCl (pH 7.8), and maintained in 0.1×MMR. Explant dissections were performed in 0.75×MMR using an eyelash knife. Embryos were staged according to Nieuwkoop and Faber (1994).
as §1, §2
RT-PCR was performed as described in Schneider and Mercola (1999). Twenty-five cycles were performed at an annealing temperature of 55° C., unless otherwise noted. Expression of EF1α was used as a positive control for the reverse transcriptase reaction. The following additional primers were used: XNkx2.5+, […] (SEQ ID NO: 7); XNkx2.5−, […] (SEQ ID NO: 8); M. actin+, […] (SEQ ID NO: 9); M. actin−, […] (SEQ ID NO: 10) (22 cycles); TnIc+, […] (SEQ ID NO: 11); TnIc−, […] (SEQ ID NO: 12); MHCα+, […] GTTCCG (SEQ ID NO: 13); MHCα−, […] (SEQ ID NO: 14); Tbx5+, […] (SEQ ID NO: 15); Tbx5−, […] (SEQ ID NO: 16) (27 cycles); XNkx2.10+, […] (SEQ ID NO: 17); and XNkx2.10−, […] (SEQ ID NO: 18) (59° C., 28 cycles).
A secreted version of the C-terminal fragment was made by fusing the secretory region of human Dkk1 to the C-terminal region cysteine rich region, as described above. This protein is referred to as “C1.” Briefly, the HindIII-Asp718 C-terminal fragment of human Dkk1 (SEQ ID NO: 1) was ligated to the sequence encoding the secretory signal of Dkk1 and cloned into a vector permitting in vitro transcription. As a control, full length Dkk1 was used. RNA was prepared in vitro from the vector as described above. The RNA encoded a polypeptide comprising amino acids 158-266 of SEQ ID NO: 2. The RNA was then injected into noncardiogenic frog embryonic mesoderm, as described above and in Schneider and Mercola (2001) Genes & Dev. 15:304.

[5] = system: stage 7 chick embryos; assay: Cell pellet implantation into stage 7 chick embryos in New culture (heart looping, DiI tracing, in situ hybridization); type: in vivo
[6] = system: murine embryonic stem (ES) cells; assay: Cardiac differentiation of ES cells; type: cell-based
Procedure: Full length human Dkk1 (SEQ ID NO: 2) was expressed in host cells and incubated with murine embryonic stem (ES) cells. ES cells were lightly trypsinized, re-plated on petri plastic and cultured for 4 days. During this time, the cells cluster and the mesodermal marker brachyury becomes expressed. Cells were then trypsinized lightly and transferred to gelatin-coated plates with or without recombinant Dkk1 and cultured at 37° C. Cardiomyocyte differentiation of ES cells in the absence of Dkk1 occurs at 13-14 days. ES cells incubated with Dkk1 differentiated into cardiomyocytes at 8-9 days (see FIG. 21).
Cells were grown on gelatin-coated plates without LIF for 2d, then allowed to aggregate on petri dish plastic for 2d, aggregates were then dispersed by mild trypsinization and plated onto gelatin-coated plates with rDkk1- or rC1-conditioned medium or control conditioned medium lacking rDkk for duration of experiment. Presence of beating foci was scored on days 8-14. Instances of beating foci presented as “beating”. Precocious beating sometimes occurred at day 8.

Chain of mWnt-3a (P27467 19-352 limits assumed): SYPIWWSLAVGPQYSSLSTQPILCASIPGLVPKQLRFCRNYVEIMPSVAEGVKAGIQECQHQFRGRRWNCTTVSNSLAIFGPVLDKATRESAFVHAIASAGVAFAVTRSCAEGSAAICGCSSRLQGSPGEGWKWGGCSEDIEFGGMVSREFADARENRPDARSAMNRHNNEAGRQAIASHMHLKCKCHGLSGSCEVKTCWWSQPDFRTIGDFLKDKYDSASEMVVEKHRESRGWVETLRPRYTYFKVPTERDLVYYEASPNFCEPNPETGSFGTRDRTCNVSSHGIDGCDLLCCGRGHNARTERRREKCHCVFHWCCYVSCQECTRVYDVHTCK

chick Crescent
Wnt-induced expression of siamois in Xenopus animal caps (RT-PCR) [1]: 3 fold

Wnt3A
Incidence of explants expressing Nkx2.5 [2]: 45.6%
Incidence of explants expressing TnIc [2]: 24.2%

B1: Wnt11: expressed from injected pCS2-cWnt11 plasmid (protein, UniProt P49339 25-354, looked up)
Protein Wnt-11: IKWIALSKTPSSLALNQTQHCKQLEGLVVSQVQLCRSNLELMQTIIQAAREVIKTCRKTFSDMRWNCSSIELAPNYLLDLERGTRESAFVYALSAAAISHTIARACTTGDLPGCSCGPIPGETPGPGYRWGGCADNLNYGLIMGSKFSDAPMKMKKSGSQANKLMHLHNSEVGRQVLKASLEMKCKCHGVSGSCSIKTCWKGLQELRDIALDLKNKYLSATKVVHRPMGTRKYLVPKDIDIRPVKETELIYLQSSPDFCMKNEKVGSHGTQDRQCNKTSNGSDSCDLMCCGRGYNPYMDKVVERCHCKYHWCCYVTCKKCERTVERYVCK
Incidence of explants expressing Nkx2.5 [2]: 94.1%
Incidence of explants expressing TnIc [2]: 83.1%

B2: Wnt8: expressed from injected pCSKA-Xwnt8 plasmid (protein)
chain: AWSVNNFLMTGPKAYLTYSASVAVGAQNGIEECKYQFAWERWNCPESTLQLATHNGLRSATRETSFVHAISSAGVMYTLTRNCSMGDFDNCGCDDSRNGRIGGRGWVWGGCSDNAEFGERISKLFVDGLETGQDARALMNLHNNEAGRLAVKETMKRTCKCHGISGSCSIQTCWLQLAEFRDIGNHLKIKHDQALKLEMDKRKMRSGNSADNRGAIADAFSSVAGSELIFLEDSPDYCLKNISLGLQGTEGRECLQSGKNLSQWERRSCKRLCTDCGLRVEEKKTEIISSCNCKFHWCCTVKCEQCKQVVIKHFCARRERDSNMLNTKRKNRGHRR
Incidence of explants expressing Nkx2.5 [2]: 19.9%
Incidence of explants expressing TnIc [2]: 41.1%

B3: Noggin: BMP antagonist; noggin-conditioned medium from CHO cells or injected noggin mRNA (protein, UniProt P49011 20-222, looked up)
Noggin: RIDQGGCQHYLHIRPAPSENLPLVDLIEHPDPIYDPKEKDLNETLLRTLMVGHFDPNFMATILPEERLGVEDLGELDLLLRQKPSGAMPAEIKGLEFYEGLQSKKHRLSKKLRRKLQMWLWSQTFCPVLYTWNDLGTRFWPRYVKVGSCYSKRSCSVPEGMVCKAAKSMHLTILRWRCQRRVQQKCAWITIQYPVISECKCSC
APMEE explants in which cardiogenesis was blocked (number of explants) [3]: 10 out of 14
mRNA dose inducing muscle actin ([4]; VMZ explants): ≥ 5 pg
mRNA dose at which explants were unable to survive ([4]; extreme morphogenetic movements of VMZ explants): > 50 pg
Heart-specific gene expression (TnIc, MHCα) ([4]; mRNA injected ventrally at four-cell stage, VMZ explants, RT-PCR stage 30): did not induce specific markers of cardiogenesis

B4: BMP-4: BMP-4 expressed by implanted 293 cell pellets (protein, UniProt P12644 293-408, looked up)
Bone morphogenetic protein 4: SPKHHSQRARKKNKNCRRHSLYVDFSDVGWNDWIVAPPGYQAFYCHGDCPFPLADHLNSTNHAIVQTLVNSVNSSIPKACCVPTELSAISMLYLDEYDKVVLKNYQEMVVEGCGCR
Embryos with reversed heart looping ([5]; 293 cell pellets in left anterior paraxial mesoderm, stage 7, n=25): 20%
vMHC expression ([5]; cell pellets in presumptive anterior paraxial mesoderm, in situ hybridization): failed to affect subsequent vMHC expression

B5: Dkk1: Full length human Dkk1 (SEQ ID NO: 2), recombinant, expressed in host cells (protein, UniProt O94907 1-266, looked up)
chain: MMALGAAGATRVFVAMVAAALGGHPLLGVSATLNSVLNSNAIKNLPPPLGGAAGHPGSAVSAAPGILYPGGNKYQTIDNYQPYPCAEDEECGTDEYCASPTRGGDAGVQICLACRKRRKRCMRHAMCCPGNYCKNGICVSSDQNHFRGEIEETITESFGNDHSTLDGYSRRTTLSSKMYHTKGQEGSVCLRSSDCASGLCCARHFWSKICKPVLKEGQVCTKHRRKGSHGLEIFQRCYCGEGLSCRIQKDHHQASNSSRLHTCQRH
modifications: full-length
myosin light chain (MLC2a) mRNA ([6]; PCR, relative to ES cells not incubated with Dkk1): elevated myosin light chain (MLC2a) mRNA
Beating, Nkx2.5 and contractile protein expression ([6]; by comparison with ES cells not incubated with Dkk1): early beating, an increased number of beating foci, an increased Nkx2.5 expression and increased contractile protein expression
Time to cardiomyocyte differentiation of ES cells ([6]; recombinant Dkk1, 13-14 days in the absence of Dkk1): 8 to 9 days

B6: Wnt5A: expressed from injected pCS2-Xwnt5A plasmid (protein, UniProt P31286 41-380, looked up)
Protein Wnt-5a: VVESSSWWSLGMNPVQMPEVYIIGAQPLCSQLSGLSQGQKKLCQLYQDHMQFIGDGAKTGIKECQYQFRHRRWNCSTVDNTSVFGRVMQIGSRETAFTYAISAAGVVNAVSRACREGELSTCGCSRAARPKDLPRDWLWGGCGDNLDYGYRFAKEFVDAREREKIHQKGSYESSRIMMNLHNNEAGRRAVSTLADVACKCHGVSGSCSLKTCWLQLADFRKVGDHLKEKYDSAGAMKLNTRGKLVQVNNKFNSPTMNDLVYIDPSPDYCVHNESTGSLGTQGRLCNKTSEGMDGCELMCCGRGYDQFKTVQTERCHCKFHWCCYVKCKKCTEVVDQFACK
Incidence of explants expressing Nkx2.5 [2]: 97.5%
Incidence of explants expressing TnIc [2]: 85.9%
